# Test results reported in patent publication US20180155451A1 (published 2018).
# T1: FcγRIIb extracellular domain with C-terminal His tag (human, UniProt P31994 43-217)
# T1 construct: extracellular domain; also called FcgRIIb; 2b; not shown: His tag at the C terminus
# T1 sequence (looked up): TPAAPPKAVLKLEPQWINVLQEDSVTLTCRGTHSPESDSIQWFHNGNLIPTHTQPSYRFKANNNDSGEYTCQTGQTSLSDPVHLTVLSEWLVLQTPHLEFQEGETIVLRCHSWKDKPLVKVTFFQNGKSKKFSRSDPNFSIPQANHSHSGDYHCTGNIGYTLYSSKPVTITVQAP
# T2: FcγRIIa R (FcγRIIa, allotype R: Arg at position 131) extracellular domain with C-terminal His tag (human, UniProt P12318 34-217)
# T2 construct: extracellular domain; also called FcgRIIa R; 2aR; not shown: His tag at the C terminus
# T2 sequence (looked up): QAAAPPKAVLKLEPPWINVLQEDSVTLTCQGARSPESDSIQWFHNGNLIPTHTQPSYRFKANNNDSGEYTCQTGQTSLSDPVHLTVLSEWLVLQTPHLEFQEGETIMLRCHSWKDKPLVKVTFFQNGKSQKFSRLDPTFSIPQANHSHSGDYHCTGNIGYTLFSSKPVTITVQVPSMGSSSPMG
# T3: FcγRIIb extracellular domain with C-terminal His tag (human, UniProt P31994 43-217)
# T3 construct: extracellular domain; also called 2b; FcgRIIb
# T3 sequence (looked up): T1 sequence (looked up)
# T4: FcγRIIb (human, UniProt P31994 43-217)
# T4 construct: extracellular domain; also called FcgRIIb; 2b
# T4 sequence (looked up): T1 sequence (looked up)
# B1: GpH7-A5/GpH7-B3 variant A330_11K/GpL16-k0 (antibody, human IgG1, kappa)
# heavy 1: not shown
# heavy 2: not shown
# light: DIVMTQSPLSLPVTPGEPASISCQASESLVHSNRNTYLHWYLQKPGQSPQLLIYKVSNRFSGVPDRFSGSGSGTDFTLKISRVEAEDVGVYYCSQNTHVPPTFGQGTKVEIERTVAAPSVFIFPPSDEQLKSGTASVVCLLNNFYPREAKVQWKVDNALQSGNSQESVTEQDSKDSTYSLSSTLTLSKADYEKHKVYACEVTHQGLSSPVTKSFNRGEC
# notes: He Ab: alteration in the GpH7-B3 H chain only; also called He Ab
# B2: GpH7-A5/GpH7-B3 variant S298_02A/GpL16-k0 (antibody, human IgG1, kappa)
# heavy 1: not shown
# heavy 2: not shown
# light: B1 light
# notes: He Ab: alteration in one H chain only; also called He Ab
# B3: GpH7-A5/GpH7-B3 variant S324_09D/GpL16-k0 (antibody, human IgG1, kappa)
# heavy 1: not shown
# heavy 2: not shown
# light: B1 light
# notes: as for B2
# B4: GpH7-A5/GpH7-B3 variant Y300_08L/GpL16-k0 (antibody, human IgG1, kappa)
# heavy 1: not shown
# heavy 2: not shown
# light: B1 light
# notes: as for B2
# B5: GpH7-A5/GpH7-B3 variant S298_03V/GpL16-k0 (antibody, human IgG1, kappa)
# heavy 1: not shown
# heavy 2: not shown
# light: B1 light
# notes: as for B2
# B6: GpH7-A5/GpH7-B3 variant S324_20W/GpL16-k0 (antibody, human IgG1, kappa)
# heavy 1: not shown
# heavy 2: not shown
# light: B1 light
# notes: as for B2
# B7: GpH7-A5/GpH7-B3 variant S324_15Y/GpL16-k0 (antibody, human IgG1, kappa)
# heavy 1: not shown
# heavy 2: not shown
# light: B1 light
# notes: as for B2
# B8: GpH7-A5/GpH7-B3 variant Q295_10E/GpL16-k0 (antibody, human IgG1, kappa)
# heavy 1: not shown
# heavy 2: not shown
# light: B1 light
# notes: as for B2
# B9: GpH7-A5/GpH7-B3 variant S324_02A/GpL16-k0 (antibody, human IgG1, kappa)
# heavy 1: not shown
# heavy 2: not shown
# light: B1 light
# notes: as for B2
# B10: GpH7-A5/GpH7-B3 variant S324_16H/GpL16-k0 (antibody, human IgG1, kappa)
# heavy 1: not shown
# heavy 2: not shown
# light: B1 light
# notes: as for B2
# B11: GpH7-A5/GpH7-B3 variant S324_14T/GpL16-k0 (antibody, human IgG1, kappa)
# heavy 1: not shown
# heavy 2: not shown
# light: B1 light
# notes: as for B2
# B12: GpH7-A5/GpH7-B3 variant S298_14T/GpL16-k0 (antibody, human IgG1, kappa)
# heavy 1: not shown
# heavy 2: not shown
# light: B1 light
# notes: as for B2
# B13: GpH7-A5/GpH7-B3 variant S324_01G/GpL16-k0 (antibody, human IgG1, kappa)
# heavy 1: not shown
# heavy 2: not shown
# light: B1 light
# notes: as for B2
# B14: GpH7-A5/GpH7-B3 variant Q295_14T/GpL16-k0 (antibody, human IgG1, kappa)
# heavy 1: not shown
# heavy 2: not shown
# light: B1 light
# notes: as for B2
# B15: GpH7-A5/GpH7-B3 variant I336_04F/GpL16-k0 (antibody, human IgG1, kappa)
# heavy 1: not shown
# heavy 2: not shown
# light: B1 light
# notes: heterodimerized IgG1, one H chain mutated; also called He Ab
# B16: GpH7-A5/GpH7-B3 variant S337_03V/GpL16-k0 (antibody, human IgG1, kappa)
# heavy 1: not shown
# heavy 2: not shown
# light: B1 light
# notes: as for B15
# B17: GpH7-A5/GpH7-B3 variant I336_09D/GpL16-k0 (antibody, human IgG1, kappa)
# heavy 1: not shown
# heavy 2: not shown
# light: B1 light
# notes: as for B15
# B18: GpH7-A5/GpH7-B3 variant S337_04F/GpL16-k0 (antibody, human IgG1, kappa)
# heavy 1: not shown
# heavy 2: not shown
# light: B1 light
# notes: as for B15
# B19: GpH7-A5/GpH7-B3 variant I336_16H/GpL16-k0 (antibody, human IgG1, kappa)
# heavy 1: not shown
# heavy 2: not shown
# light: B1 light
# notes: as for B15
# B20: GpH7-A5/GpH7-B3 variant I336_19Q/GpL16-k0 (antibody, human IgG1, kappa)
# heavy 1: not shown
# heavy 2: not shown
# light: B1 light
# notes: as for B15
# B21: GpH7-A5/GpH7-B3 variant S337_01G/GpL16-k0 (antibody, human IgG1, kappa)
# heavy 1: not shown
# heavy 2: not shown
# light: B1 light
# notes: as for B15
# B22: GpH7-A5/GpH7-B3 variant I336_18N/GpL16-k0 (antibody, human IgG1, kappa)
# heavy 1: not shown
# heavy 2: not shown
# light: B1 light
# notes: as for B15
# B23: GpH7-A5/GpH7-B3 variant S337_12R/GpL16-k0 (antibody, human IgG1, kappa)
# heavy 1: not shown
# heavy 2: not shown
# light: B1 light
# notes: as for B15
# B24: GpH7-A5/GpH7-B3 variant S337_02A/GpL16-k0 (antibody, human IgG1, kappa)
# heavy 1: not shown
# heavy 2: not shown
# light: B1 light
# notes: as for B15
# B25: GpH7-A5/GpH7-B3 variant I336_15Y/GpL16-k0 (antibody, human IgG1, kappa)
# heavy 1: not shown
# heavy 2: not shown
# light: B1 light
# notes: as for B15
# B26: GpH7-A5/GpH7-B3 variant I336_11K/GpL16-k0 (antibody, human IgG1, kappa)
# heavy 1: not shown
# heavy 2: not shown
# light: B1 light
# notes: as for B15
# B27: GpH7-A5/GpH7-B3 variant S337_06M/GpL16-k0 (antibody, human IgG1, kappa)
# heavy 1: not shown
# heavy 2: not shown
# light: B1 light
# notes: as for B15
# B28: GpH7-A5/GpH7-B3 variant S337_19Q/GpL16-k0 (antibody, human IgG1, kappa)
# heavy 1: not shown
# heavy 2: not shown
# light: B1 light
# notes: as for B15
# B29: GpH7-A5/GpH7-B3 variant I336_12R/GpL16-k0 (antibody, human IgG1, kappa)
# heavy 1: not shown
# heavy 2: not shown
# light: B1 light
# notes: as for B15
# B30: GpH7-A5/GpH7-B3 variant I336_14T/GpL16-k0 (antibody, human IgG1, kappa)
# heavy 1: not shown
# heavy 2: not shown
# light: B1 light
# notes: as for B15
# B31: GpH7-A5/GpH7-B3 variant I336_13S/GpL16-k0 (antibody, human IgG1, kappa)
# heavy 1: not shown
# heavy 2: not shown
# light: B1 light
# notes: as for B15
# B32: GpH7-A5/GpH7-B3 variant I336_10E/GpL16-k0 (antibody, human IgG1, kappa)
# heavy 1: not shown
# heavy 2: not shown
# light: B1 light
# notes: as for B15
# B33: GpH7-A5/GpH7-B3 variant S337_11K/GpL16-k0 (antibody, human IgG1, kappa)
# heavy 1: not shown
# heavy 2: not shown
# light: B1 light
# notes: as for B15
# Biological target: T1, FcγRIIb extracellular domain with …
# Assay: SPR Biacore, antibody captured, FcgR analyte; vs HeCon Ab GpH7-A5/GpH7-B3/GpL16-k0 = 100
# Method: (§1) The heterodimerized antibodies He Abs in which one of the H chains was introduced with an alteration were assayed for their binding activities to each activating FcγR and inhibitory FcγR according to the method described in Example 4. […] The activating FcγRs in FIGS. 26, 27, 28, and 29 are FcγRIa, FcγRIIa (R), FcγRIIa (H), and FcγRIIIa, respectively.
# (§2) Analysis of interaction between objective antibody and the FcγR was carried out using Biacore T100 (GE Healthcare). HBS-EP+ (GE Healthcare) was used as the running buffer, and the measurement temperature was set to 25° C. Chips produced by immobilizing the antigen peptide by the amine coupling method to a Series S Sencor Chip CM5 (GE Healthcare), or alternatively, chips produced by allowing preliminarily biotinylated antigen peptides to interact with and immobilize onto a Series S Sensor Chip SA (certified) (GE Healthcare) were used. Antibodies of interest were captured onto an antigen peptide-immobilized chip, and allowed to interact to each FcγR diluted with running buffer. To regenerate and repeatedly use the chip, the antibodies captured on the chip were washed off by reacting 10 mM glycine-HCl, pH 1.5.
row,Binder,He/Con_2b [control = 100]
1,B1,95

# Biological target: T2, FcγRIIa R (FcγRIIa, allotype R: Arg at …)
# Assay: as above
# Method: as §1, §2
row,Binder,He/Con_2aR [control = 100]
1,B1,110

# Biological target: T3, FcγRIIb extracellular domain with …
# Assay: SPR, relative to GpH7-A5/GpH7-B3/GpL16-k0
row,Binder,He/Con_2b [control=100]
1,B2,73.4
2,B3,85.8
3,B4,73.6
4,B5,64.5
5,B6,87.5
6,B7,88.2
7,B8,94.8
8,B9,78.3
9,B10,83.5
10,B11,88.4
11,B12,77.9
12,B13,81.1
13,B14,66.8

# Biological target: T5, FcγRIIIa extracellular domain with C-terminal His tag (human, UniProt P08637 17-208)
# T5 construct: extracellular domain; also called 3a; FcgRIIIa
# Assay: SPR, relative to GpH7-A5/GpH7-B3/GpL16-k0
# T5 sequence (P08637 17-208): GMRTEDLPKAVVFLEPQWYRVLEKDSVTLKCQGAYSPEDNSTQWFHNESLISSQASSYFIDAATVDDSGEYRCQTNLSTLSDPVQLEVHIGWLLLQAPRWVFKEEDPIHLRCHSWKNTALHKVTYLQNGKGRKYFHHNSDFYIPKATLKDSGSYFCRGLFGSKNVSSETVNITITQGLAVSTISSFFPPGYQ
row,Binder,He/Con_3a [control=100]
1,B2,160
2,B3,101
3,B4,105
4,B5,109
5,B6,102
6,B7,101
7,B8,100
8,B9,104
9,B10,104
10,B11,103
11,B12,113
12,B13,105
13,B14,115

# Biological target: T6, FcγRIa (human, UniProt P12314 16-292)
# T6 construct: extracellular domain; also called FcgRI; FcgRIa
# Assay: SPR (Biacore), relative to GpH7-A5/GpH7-B3/GpL16-k0 = 100
# Method: as §1, §2
# T6 sequence (P12314 16-292): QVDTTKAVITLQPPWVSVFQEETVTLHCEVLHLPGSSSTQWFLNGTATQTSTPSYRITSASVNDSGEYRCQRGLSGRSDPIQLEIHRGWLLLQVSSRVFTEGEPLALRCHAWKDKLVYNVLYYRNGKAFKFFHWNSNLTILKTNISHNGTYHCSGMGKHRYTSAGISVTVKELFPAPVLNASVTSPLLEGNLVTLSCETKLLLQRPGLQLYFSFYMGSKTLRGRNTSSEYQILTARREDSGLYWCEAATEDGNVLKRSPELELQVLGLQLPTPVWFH
row,Binder,He/Con_1a (Ia binding)
1,B15,106 relative (control = 100)
2,B16,107 relative (control = 100)
3,B17,104 relative (control = 100)
4,B18,106 relative (control = 100)
5,B19,101 relative (control = 100)
6,B20,104 relative (control = 100)
7,B21,107 relative (control = 100)
8,B22,108 relative (control = 100)
9,B23,106 relative (control = 100)
10,B24,106 relative (control = 100)
11,B25,103 relative (control = 100)
12,B26,105 relative (control = 100)
13,B27,107 relative (control = 100)
14,B28,105 relative (control = 100)
15,B29,102 relative (control = 100)
16,B30,104 relative (control = 100)
17,B31,102 relative (control = 100)
18,B32,108 relative (control = 100)
19,B33,104 relative (control = 100)

# Biological target: T4, FcγRIIb
# Assay: as above
# Method: as §1, §2
row,Binder,He/Con_2b (IIb binding)
1,B15,91.2 relative (control = 100)
2,B16,98.9 relative (control = 100)
3,B17,92.1 relative (control = 100)
4,B18,97.8 relative (control = 100)
5,B19,85.8 relative (control = 100)
6,B20,58.2 relative (control = 100)
7,B21,92 relative (control = 100)
8,B22,97.6 relative (control = 100)
9,B23,99.5 relative (control = 100)
10,B24,97.2 relative (control = 100)
11,B25,68.2 relative (control = 100)
12,B26,90.3 relative (control = 100)
13,B27,96.7 relative (control = 100)
14,B28,99.7 relative (control = 100)
15,B29,92.1 relative (control = 100)
16,B30,89.5 relative (control = 100)
17,B31,83.7 relative (control = 100)
18,B32,89.8 relative (control = 100)
19,B33,94.3 relative (control = 100)
